According to article PMC6978347:

B1: AtNBR1^1–94 (AtNBR1–PB1) [Arabidopsis thaliana] / MBP-tagged wild-type AtNBR1–PB1^1–94 [Arabidopsis thaliana] (parent)
chain 1: MESTANALVVKVSYGGVLRRFRVPVKANGQLDLEMAGLKEKIAALFNLSADAELSLTYSDEDGDVVALVDDNDLFDVTNQRLKFLKINVNAGVS
chain 2: B1 chain 1

Variants of: B1
Assay: pull-down (MBP pulldown, band quantification)
Conditions: with MBP-tagged wild-type AtNBR1–PB1^1–94 [Arabidopsis thaliana];; read off a plot

Q: Which ratio to parent does the source give for chain 1 MESTANALVVKVSYGGVLRRFRVPVKANGQLDLEMAGLKEKIAALFNLSADAELSLTYSDADGDVVALVDDNDLFDVTNQRLKFLKINVNAGVS [chain 1 E61A] here?
A: 0.22

Q: How did the ratio to parent turn out when chain 1 MESTANALVVKVSYGGVLRRFRVPVKANGQLDLEMAGLKEKIAALFNLSADAELSLTYSDEDGAVVALVDDNDLFDVTNQRLKFLKINVNAGVS [chain 1 D64A] was run?
A: 0.27

Q: With chain 1 MESTANALVVKVSYGGVLAAFRVPVKANGQLDLEMAGLKEKIAALFNLSADAELSLTYSDEDGDVVALVDDNDLFDVTNQRLKFLKINVNAGVS [chain 1 R19A R20A] as the variant, how does the ratio to parent read?
A: 0.01

Q: Which ratio to parent does the source give for chain 1 MESTANALVVKVSYGGVLRRFRVPVKANGQLDLEMAGLKEKIAALFNLSADAELSLTYSAEAGDVVALVDDNDLFDVTNQRLKFLKINVNAGVS [chain 1 D60A D62A] here?
A: 0.06

Q: How did the ratio to parent turn out when chain 1 MESTANALVVAVSYGGVLRRFRVPVKANGQLDLEMAGLKEKIAALFNLSADAELSLTYSDEDGDVVALVDDNDLFDVTNQRLKFLKINVNAGVS [chain 1 K11A] was run?
A: 0.32

Q: How did the ratio to parent turn out when chain 1 MESTANALVVAVSYGGVLRRFRVPVKANGQLDLEMAGLKEKIAALFNLSADAELSLTYSAEDGDVVALVDDNDLFDVTNQRLKFLKINVNAGVS [chain 1 K11A D60A] was run?
A: 0.04
